Test results as given in US6797467B1, “Compositions and methods for determining interactions of mitochondrial components, and for identifying agents that alter such interactions” (MitoKor, Inc., priority 1999, dated 2004).

Tests used:
CypD rotamase activity = molecular target: T1, CypD rotamase activity (Homo sapiens, UniProt P30405); assay: Rotamase (peptidylprolyl cis-trans isomerase) solvent jump assay; assay type: biochemical; settings: relative to reactions without added enzyme; FIG. 12, 13
T1 construct: made in house; host or cells: E. coli (pMK12-GST-huCypD)
Procedure: Cyclophilin binding to ANT present in the SMP was determined using soluble recombinant GST-cyclophilin D (see Example 10, above). Rotamase (peptidylprolyl cis-trans isomerase) activity of the GST-CypD preparation was determined according to the “solvent jump” method of Kofron et al. (1991 Biochemistry 30: 6127-6134). Briefly, Ala-Ala-cis/trans-Pro-Phe-pNa was used as the rotamase substrate, coupled with α-chymotrypsin cleavage of all trans-Pro containing peptide to yield p-nitroanilide, detected by absorbance at 390 nm.

[1] = molecular target: T2, ANT/BR PLS (human ANT3 and bacteriorhodopsin) (Homo sapiens, UniProt P30405); assay: GST-CypD binding to proteoliposomes reconstituted with huANT3 and bacteriorhodopsin (ANT/BR PLS); settings: FIG. 14
T2 construct: GST-huCypD: E. coli; Bacteriorhodopsin: purchased
Procedure: Preformed liposomes were prepared by a freeze/thaw/sonication procedure. Briefly, egg-yolk lecithin (240 mg) was suspended in 3 ml of reconstitution buffer (50 mM NaCl, 10 mM HEPES, pH 7.4). The suspension was pulsed with argon stream to remove oxygen, partially frozen by contacting the vessel with a dry ice/ethanol bath, and sonicated as described above for SMP except the sonication period was for 1 min. The freeze/sonication step was repeated at least 3-4 times until clarification of lipid suspension was achieved.
Small EconoColumns™ (BioRad, Hercules, Calif.) were filled with 1.7 gm of SM-2 BioBeads™ (BioRad), washed with methanol followed by water, and equilibrated with the reconstitution buffer. […] Control (protein-free) liposomes were prepared in parallel by adding 0.5 ml of the elution buffer (50 mM NaCl, 1 mM EDTA, 10 mM Hepes, 1.3% Triton X-100™) to 200 μl of the liposome suspension. Each mixture was vortexed, applied to the BioBeads™ SM-2 column and passed through the column 5-6 times. Formation of proteoliposomes was visualized by apparent turbidity of the solution. Non-entrapped MUP or ATP was removed either during pelleting of the proteoliposomes by centrifugation, or by filtration of the proteoliposome suspension on a column of Sephadex™ G-50 (Pharmacia, Piscataway, N.J.).
Bacteriorhodopsin (BR) was co-reconstituted into the ANT liposomes as follows. […]

[2] = molecular target: T3, ANT present in the SMP (recombinant human ANT3) (Homo sapiens, UniProt P30405); assay: GST-CypD binding to submitochondrial particles (SMP) from T. ni cells expressing His-tagged huANT3; settings: 2.6 μM GST-CypD, 1 mg SMP; 0 hr, 3 hr, 6 hr; FIG. 11
T3 construct: made in house; host or cells: His-huANT3: submitochondrial particles of baculovirus-infected Trichoplusia ni cells; GST-huCypD: E. coli
Procedure: SMP preparation was according to a modification of Halestrap et al. (1998 Biochim. Biophys. Acta 1366:79-94), and all steps were performed at 4° C. Starting material was one liter of cell culture, corresponding to 1×10^9 T. ni cells. Cells were pelleted by centrifugation and stored frozen at −20° C. For isolation of mitochondria, the cell pellet was thawed and resuspended in 15 ml of mitochondrial isolation buffer (MIB, all reagents from Sigma, St. Louis, Mo., unless otherwise noted): 0.22 M mannitol, 70 mM sucrose, 10 mM Hepes, 0.2 mM EDTA, 0.2 mM 2-mercaptoethanol (2-ME), pH 7.2 plus a standard protease inhibitor cocktail (Roche Molecular Biochemicals, Indianapolis, Ind.). The suspension was subjected to two freeze-thaw cycles by shell-freezing the container in a dry ice/ETOH bath and then thawing the suspension at room temperature, and was then diluted with 20 ml of MIB. The suspension was next homogenized with 10 strokes in a Potter-Elvehjem homogenizer (rheostat setting 28). The resulting homogenate was further diluted with MIB to a volume of approximately 200 ml and centrifuged at 600×g at 4° C. for 10 min. […] Protein concentration was measured using the Pierce BCA (Pierce Chemical Co., Rockford, Ill.) according to the manufacturer's instructions. […]

[3] = molecular target: T4, His-tagged huANT3 : CypD-GST interaction (Homo sapiens, UniProt P30405); assay: Nickel bead immunoassay of huANT3:huCypD interaction (Western, anti-GST); assay type: binding
T4 construct: made in house; host or cells: His-huANT3: Trichoplusia ni cells infected with baculovirus (pMK4B-huANT3); GST-huCypD: E. coli (pMK12-GST-huCypD)
T4 sequence (P30405 30-207): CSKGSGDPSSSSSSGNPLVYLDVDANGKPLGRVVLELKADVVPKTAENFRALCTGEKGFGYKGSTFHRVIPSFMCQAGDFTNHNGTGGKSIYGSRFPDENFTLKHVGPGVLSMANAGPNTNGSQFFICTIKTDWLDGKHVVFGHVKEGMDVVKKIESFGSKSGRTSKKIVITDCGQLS
Procedure: Each portion was suspended in 1 ml of MSB with protease inhibitors (leupeptin, final concentration 10 ug/ml; pepstatin, final concentration 10 ug/ml; aprotinin, final concentration, 2 ug/ml; phenylmethylsulfonyl fluoride {PMSF}, final concentration, 100 μM; all from Sigma Chemical Co., St Louis, Mo.). The resuspended cell suspensions were frozen and thawed twice, then homogenized using a rotating teflon-coated probe and a close-fitting glass container (10 passes). The cellular homogenate was centrifuged (3,700 rpm, approximately 1,500×g) at 4° C. for 5 minutes; this supernatant from the first spin was saved. The pellet was washed with about 500 μl of MSB with protease inhibitors, centrifuged (3,800 rpm, approximately 1,600×g) at 4° C. for 5 minutes, and supernatant from this spin was combined with the supernatant from the first spin. The combined supernatant was centrifuged (14,000 rpm, approximately 20,800×g) at 4° C. for 15 minutes, and the pellet was resuspended in 300 μl of a 1:1 solution of (a) 20 mM MOPS and (b) MSB, wherein both (a) and (b) contain the previously described protease inhibitors. The resultant suspension was frozen and thawed three times.
One hundred (100) μl of T. ni mitochondria (9.83 μg/ml) was thawed slowly on ice and then centrifuged at 4° C. for 15 minutes to pellet mitochondria. […]
The extracts were evaluated by Western analysis. […]

T1 sequence (P30405 30-207): as above
T2 sequence (P30405 30-207): as above
T3 sequence (P30405 30-207): as above

Substance | rotamase activity (CypD rotamase activity) | binding of GST-CypD to ANT/BR PLS [1] | GST-CypD in SMP pellet fractions [2] | amount of CypD-GST retained on beads ([3]; His-tagged huANT3 present (lanes 2', 3') versus absent (lane 1')) | binding of CypD-GST to His-tagged ANT3 on a solid support ([3]; summary statement)
Ek-CypD: CypD liberated from the polyHis fusion tag following enterokinase cleavage | rotamase activity was also demonstrated | – | – | – | –
His-CypD: recombinant polyHis-tagged human CypD fusion protein, purified on nickel columns or by FPLC | rotamase activity was also demonstrated | – | – | – | –
GST-CypD: recombinant glutathione S-transferase-human cyclophilin D fusion protein expressed from pMK12-GST-huCypD | readily apparent rotamase activity | readily apparent | readily detectable | visibly increased by roughly an order of magnitude | specifically binds
